Source: IntAct's records for PubMed 26235031

B1: Adhesion G protein-coupled receptor L3 (Mus musculus), Q80TS3 (parent)
chain: MWPPQLLILTMLLAPVVHGGKHNERHPALAAPLRHAERSPGGALPPRHLLQQPAAERSTAHRGQGPRGAARGVRGPGAPGAQIAAQAFSRAPIPMAVVRRELSCESYPIELRCPGTDVIMIESANYGRTDDKICDSDPAQMENIRCYLPDAYKIMSQRCNNRTQCAVVAGPDVFPDPCPGTYKYLEVQYECVPYKVEQKVFLCPGLLKGVYQSEHLFESDHQSGAWCKDPLQASDKIYYMPWTPYRTDTLTEYSSKDDFIAGRPTTTYKLPHRVDGTGFVVYDGALFFNKERTRNIVKFDLRTRIKSGEAIIANANYHDTSPYRWGGKSDIDLAVDENGLWVIYATEQNNGKIVISQLNPYTLRIEGTWDTAYDKRSASNAFMICGILYVVKSVYEDDDNEATGNKIDYIYNTDQSKDSLVDVPFPNSYQYIAAVDYNPRDNLLYVWNNYHVVKYSLDFGPLDSRSGPVHHGQVSYISPPIHLDSELERPPVRGISTTGSLGMGSTTTSTTLRTTTWNIGRSTTASLPGRRNRSTSTPSPAVEVLDDVTTHLPSAASQIPAMEESCEAVEAREIMWFKTRQGQVAKQPCPAGTIGVSTYLCLAPDGIWDPQGPDLSNCSSPWVNHITQKLKSGETAANIARELAEQTRNHLNAGDITYSVRAMDQLVGLLDVQLRNLTPGGKDSAARSLNKLQKRERSCRAYVQAMVETVNNLLQPQALNAWRDLTTSDQLRAATMLLDTVEESAFVLADNLLKTDIVRENTDNIQLEVARLSTEGNLEDLKFPENMGHGSTIQLSANTLKQNGRNGEIRVAFVLYNNLGPYLSTENASMKLGTEAMSTNHSVIVNSPVITAAINKEFSNKVYLADPVVFTVKHIKQSEENFNPNCSFWSYSKRTMTGYWSTQGCRLLTTNKTHTTCSCNHLTNFAVLMAHVEVKHSDAVHDLLLDVITWVGILLSLVCLLICIFTFCFFRGLQSDRNTIHKNLCISLFVAELLFLIGINRTDQPIACAVFAALLHFFFLAAFTWMFLEGVQLYIMLVEVFESEHSRRKYFYLVGYGMPALIVAVSAAVDYRSYGTDKVCWLRLDTYFIWSFIGPATLIIMLNVIFLGIALYKMFHHTAILKPESGCLDNINYEDNRPFIKSWVIGAIALLCLLGLTWAFGLMYINESTVIMAYLFTIFNSLQGMFIFIFHCVLQKKVRKEYGKCLRTHCCSGKSTESSIGSGKTSGSRTPGRYSTGSQSRIRRMWNDTVRKQSESSFITGDINSSASLNREGLLNNARDTSVMDTLPLNGNHGNSYSIAGGEYLSNCVQIIDRGYNHNETALEKKILKELTSNYIPSYLNNHERSSEQNRNMMNKLVNNLGSGSEDDAIVLDDAASFNHEESLGLELIHEESDAPLLPPRVYSTDNHQPHHYSRRRFPQDHSESFFPLLTDEHTEDLQSPHRDSLYTSMPALAGVPAADSVTTSTQTEAAAAKGGDAEDVYYKSMPNLGSRNHVHPLHAYYQLGRGSSDGFIVPPNKDGASPEGTSKGPAHLVTSL
partner: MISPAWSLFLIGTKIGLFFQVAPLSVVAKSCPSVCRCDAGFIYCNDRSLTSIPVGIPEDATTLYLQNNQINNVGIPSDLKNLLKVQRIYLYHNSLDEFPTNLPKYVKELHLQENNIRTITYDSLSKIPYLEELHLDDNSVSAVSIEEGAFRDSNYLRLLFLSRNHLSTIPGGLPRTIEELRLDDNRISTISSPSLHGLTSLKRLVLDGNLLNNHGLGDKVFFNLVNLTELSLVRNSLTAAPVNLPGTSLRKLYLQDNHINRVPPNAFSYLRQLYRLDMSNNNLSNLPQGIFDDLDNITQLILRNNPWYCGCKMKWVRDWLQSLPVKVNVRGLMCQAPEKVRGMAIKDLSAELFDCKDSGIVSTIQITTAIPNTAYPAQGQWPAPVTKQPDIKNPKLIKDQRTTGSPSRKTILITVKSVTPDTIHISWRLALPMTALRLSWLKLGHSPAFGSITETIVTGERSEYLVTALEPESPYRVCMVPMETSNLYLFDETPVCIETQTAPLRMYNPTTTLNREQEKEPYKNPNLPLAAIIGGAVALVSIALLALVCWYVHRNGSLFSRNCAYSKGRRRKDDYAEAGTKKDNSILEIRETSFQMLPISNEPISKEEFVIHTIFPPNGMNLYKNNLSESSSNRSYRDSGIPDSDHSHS
B2: Leucine-rich repeat transmembrane protein FLRT3 (Mus musculus), Q8BGT1 (parent)
chain: B1 partner

Variants of: B1
Conditions: with flrt3_mouse Flrt3, Q8BGT1

| Variant | effect of a mutation on the interaction |
| --- | --- |
| Y323A | disrupting interaction strength |
| D332A | decreasing interaction strength |

Variants of: B2
Conditions: with agrl3_mouse Adgrl3, Q80TS3

| Variant | effect of a mutation on the interaction |
| --- | --- |
| F160N | disrupting interaction strength |
| F160A | decreasing interaction strength |
| R117T | decreasing interaction strength |
